According to the supplement of paper PMC9170038:

Test system: MS2 coat protein
Test: apparent KD of MS2 coat protein; higher = weaker reporter binding
Settings: Eterna round: R107
Protocol: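 RNA-MaP round R107: designed RNA switches with theophylline, tryptophan, arginine or FMN aptamers are transcribed on-chip within common flanks. They are titrated with SNAP-549-labelled MS2 coat protein in RNA-MaP buffer (100 mM Tris pH 7.5, 80 mM KCl, 4 mM MgCl2), without ligand or with the indicated ligand. Median apparent KD per design.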

[1] = input ligand: theophylline 20 uM
[2] = input ligand: theophylline 2 mM
[3] = input ligand: tryptophan 2.4 mM

Row | Sequence | apparent KD of MS2 coat protein (input ligand: arginine 13.2 mM) | apparent KD of MS2 coat protein (input ligand: none) | apparent KD of MS2 coat protein [1] | apparent KD of MS2 coat protein [2] | apparent KD of MS2 coat protein [3]
1 | ACAUGAGGGCGAAGGAGCGCGUACAUGAGGAUCACCCAUGUCUAUAUCCGUCCGCGUGUAACGCAGGUAGGUCGCGCUGUUAAUU [#14 Exclusion - Arginine B] | 15.4 nM | 16 nM | 21.6 nM | 20 nM | 16.2 nM
2 | ACAUUGCGCUCGGCCGCCACUGGCUAUAGAUUUAUAGCAUUAAUGAACAUGAGGAUCACCCAUGUCAGGACCGGGAGCGAACCAU [SSTryp B #8] | 12.1 nM | – | 17.2 nM | 13.2 nM | –
3 | ACAUUUAACUGAAGGAGCGUGAUAAACAUGAGGAUCACCCAUGUACCACAGAUUCUUAGAUCACAGGUAGGUCGCAGACUAAUGA [JR_ExcArginiB_Sub013] | 11.2 nM | 11.7 nM | 13.7 nM | 12.6 nM | 12.4 nM
4 | ACAUUUAACUGAAGGAGCGUGAUAUACAUGAGGAUCACCCAUGUGUCUUACAUGAAUAAUUCACAGGUAGGUCGCAGACUAAUGA [JR_ExcArginiB_Sub009] | 30.5 nM | 26.7 nM | 33.7 nM | 39.4 nM | 32.1 nM
5 | ACAUUUAACUGAAGGAGCGUGAUUAACAUGAGGAUCACCCAUGUAACUUAGAUGCUUAUAUCACAGGUAGGUCGCAGACUAAUGA [JR_ExcArginiB_Sub011] | 13.9 nM | 13.6 nM | 18.3 nM | 14.9 nM | 15.5 nM
6 | ACCUACACGGAGACGUGUAGGAGUAAUGAUACCAGCAUGGAGACAUGCCCUUGGCAGCGUUACAUGAGGAUCACCCAUGUAGGUU [ETHA #4] | 43.3 nM | 43.6 nM | 59 nM | 78.8 nM | 43.1 nM
7 | ACCUACACGGAGACGUGUAGGAGUAAUGAUACCAGCAUGGAGACAUGCCCUUGGCAGCGUUACAUGAGGAUCACCCAUGUAGUGC [ETHA #5] | 10.4 nM | 10.7 nM | 14.2 nM | 12.8 nM | 12.9 nM
8 | ACCUGCGUUUGAUUCUAUCUGACGCAGGUUCGAGGACCGGUACGGCCGCCACUCGGACAUGAGGAUCACCCAUGUUUGACAUGGG [#03 Exclusion Tryptophan A] | 27.8 nM | 121 nM | 608 nM | 186 nM | 92.7 nM
9 | ACCUGUACGAAAAGUGCAGGACACGAAUAACGAGGACCGGUACGGCCGCCACUCGGAAAAUAACCUGAGGAUCACCCUGGUCGUG [TrypAS 7 #AlternativeMS2 #Zipper #StaticStem] | 29.5 nM | 31.6 nM | 37.5 nM | 40.1 nM | 33.9 nM
10 | ACGAACGAUAGUGAUACCAGACGUACAUGAGGAUCACCCAUGUUGUAAACAUGGUUAAUAGUCCCUUGGCAGCACGAUAAGUUCG [JR_ExcTheophyB_Sub003] | 104 nM | – | 530 nM | – | 802 nM
11 | ACGAACUGUAGUGAUACCAGACGUACAUGAGGAUCACCCAUGUUGUAAACAUGGUGAAUAGUCCCUUGGCAGCACAGUUAGUUCG [#11 Exclusion-TheophyllineB] | 162 nM | – | 355 nM | – | 299 nM
12 | ACGAACUGUAGUGAUACCAGACGUACAUGAGGAUCACCCAUGUUGUAAACAUGGUUAAUAGUCCCUUGGCAGCACAGUUAGUUCG [JR_ExcTheophyB_Sub002] | 105 nM | – | 612 nM | – | 695 nM
13 | ACGACGCAUAGUGAUACCAGCACAACAUGAGGAUCACCCAUGUCACUUAUGUAGUAAUAAUGCCCUUGGCAGCACUAUGCGUCAG [SSTheo B #1] | 40.7 nM | – | 66.3 nM | – | 52.6 nM
14 | ACGACGCAUAGUGAUACCAGUAGAACAUGAGGAUCACCCAUGUCUGUGACGCACAAACUCUGCCCUUGGCAGCACUAUGCGUCAG [SSTheo B #7] | 12 nM | – | 15.9 nM | – | 12.2 nM
15 | ACGACGCAUAGUGAUACCAGUAGAACAUGAGGAUCACCCAUGUCUGUGACGCACAAAUUCUGCCCUUGGCAGCACUAUGCGUCAG [SSTheo B #6] | 12.6 nM | – | 18.1 nM | – | 12.1 nM
16 | ACGAUACGACAUGAGGAUCACCCAUGUGAUACCAGCCUGGAAACAGGCCCUUGGCAGCACAAAUACUCCAGAAACGUAUCGAAAA [MAT - Exclusion Theophlline A - Mod of Eli - D6] | 64.9 nM | – | 262 nM | – | 156 nM
17 | ACGAUAGCACACGAGGAUCACCCGUGUGAUACCAGCCUGGAAACAGGCCCUUGGCAGCACACAAUAAAAGUGUAACUAUCGAAUA [TheoAX4 #MicroSwitchBubble #AlternativeMS2] | 40.2 nM | 54.2 nM | 128 nM | 161 nM | 56.1 nM
18 | ACGCCCAGGUAGGCUUAGUGGGAUAUGGAAGGAGCGCCGAUGCAGGCAGGUAGGUCGCCAUAGAACAUGAGGAUCACCCAUGUAA [#05 Same State - Arginine A] | 31.3 nM | 32.8 nM | 37.9 nM | 33.1 nM | 27.1 nM

Row | Sequence | apparent KD of MS2 coat protein (input ligand: arginine 13.2 mM) | apparent KD of MS2 coat protein (input ligand: none) | apparent KD of MS2 coat protein [1] | apparent KD of MS2 coat protein [2] | apparent KD of MS2 coat protein [3]
19 | ACGCCCGCCUCACAUGAGGAUCACCCAUGUCGAGGACCGGUACGGCCGCCACUCGUCGUCGGUAAUACGGGCGUUGAAUAAUAUA [Atedon] | 11.8 nM | – | 14.9 nM | 14.4 nM | –
20 | ACGGAUCGGAAACGAUCCGCGGCGAGGGUGCGAGGACCGGUACGGCCGCCACUCGGCUAACAUGAGGAUCACCCAUGUCCGAAGA [ETA NuPACK+Vienna+Vienna2 #9] | 43.6 nM | 126 nM | 137 nM | 117 nM | 172 nM
21 | ACGGAUCGGAAACGAUCCGCGGCUAGGGUGCGAGGACCGGUACGGCCGCCACUCGGGUAACAUGAGGAUCACCCAUGUCUGAUUU [ETA NP+V+V2 #14] | 50.6 nM | 123 nM | 116 nM | 118 nM | 587 nM
22 | ACGUAAAGCAGAAGGAGCGUCUUAAUUCUACAUGAGGAUCACCCAUGUUUACAUUGAAUAUGACAGGUAGGUCGCUGAAGUACGA [JR_SSArginiB_Sub001] | 23.5 nM | 33.9 nM | 27.5 nM | 30.8 nM | 23.8 nM
23 | ACGUAAUGCAGAAGGAGCGUCAUUCUCUUACAUGAGGAUCACCCAUGUUACAUGGUUUUAUGACAGGUAGGUCGCUGAAGUACGA [JR_SSArginiB_Sub004] | 71.4 nM | 105 nM | 122 nM | 138 nM | 86.6 nM
24 | ACGUAAUGCAGAAGGAGCGUCGAUCUCAUACAUGAGGAUCACCCAUGUUACAUGGUUGGACGACAGGUAGGUCGCUGAAGUACGA [#06 Exclusion - Arginine B] | 24.2 nM | 20.6 nM | 35.5 nM | 27.4 nM | 21.4 nM
25 | ACGUCACGUUUACUCGUGGUUUCGAUCGAUACCAGUAGCGAGAGUUACCCUUGGCAGCGACAUGAGGAUCACCCAUGUGCGAAGA [XTheo A #26] | 12.2 nM | – | 14 nM | – | 11.7 nM
26 | ACGUCACGUUUACUCGUGGUUUCGUUCGAUACCAGUAGCGAGAGUUACCCUUGGCAGCGACAUGAGGAUCACCCAUGUACGAAGA [XTheo A #24] | 12.7 nM | – | 15 nM | – | 12.9 nM
27 | ACGUCUCGUUUACUCGUGGGUUAGCUCGAUACCAGUAUUCAAACUUACCCUUGGCAGCGACAUGAGGAUCACCCAUGUGCGAAGA [XTheo A #23] | 17.3 nM | – | 20.5 nM | – | 17.5 nM
28 | ACGUGGAAAAUUUGUGGUGCUGCCUCAGGCCGAGGACCGGUACGGCCGCCACUCGUACAUGAGGAUCACCCAUGUCGAGUCACUG [Isanso] | 19.2 nM | – | 48 nM | 47.4 nM | –
29 | ACUAGGCUCGGAAACGAGCCUAGGACAGAAGGAGCGUGGAUUAACACAGGUAGGUCGCUGACAUGAGGAUCACCCAUGUAUUAUU [SSAA #2] | 24.5 nM | 24.9 nM | 38.6 nM | 25.3 nM | 28.9 nM
30 | ACUAGUUGUGCAGAUACCAGACAUGAGGAUCACCCAUGUUUGGGAUCUUCGGAUCUUCCUGUCCCUUGGCAGCUGUACAUCUAGA [Omei Theo B Exc v3] | 62.6 nM | – | 178 nM | – | 125 nM
31 | ACUAGUUGUGCAGAUACCAGACAUGAGGAUCACCCAUGUUUGGGAUGUUCGCAUCUUCCUGUCCCUUGGCAGCUGUACAUCUAGA [Omei Theo B Exc v4] | 60.9 nM | – | 145 nM | – | 86.2 nM
32 | ACUAGUUGUGCAGAUACCAGGCACGAGGAUCACCCGUGUUUGGGAUGUUCGCAUCUUCCUGUCCCUUGGCAGCUGUACAUCUAGA [Omei Theo B Exc v9] | 29.6 nM | 30.9 nM | 54.3 nM | 155 nM | 37.4 nM
33 | ACUCGGUAUGUCUAAUACCGAGAGUAUGAUACCAGUAUGGUGACAUACCCUUGGCAGCAUGGGACAUGAGGAUCACCCAUGUGUU [SSThA NP+V+V2 #10 Same Structure] | 119 nM | – | 465 nM | – | 588 nM
34 | ACUGACUUUACGGCCGCCACUCAUUGGCACGUGUCAUGUCAACAUGAGGAUCACCCAUGUAUGAUGAGGACCGGGUAAGGGCUGC [theeternabot_exclusion_MS2_Trp_B_2] | 8.71 nM | – | 13 nM | 11 nM | –
35 | ACUUCAUGAGGUGAUACCAGCCAAUGACAUGAGGACAUGAGGAUCACCCAUGUUUAUGUAGGCCCUUGGCAGCAUUGUAACAUGA [Same State Theophylline B 4] | 101 nM | – | 126 nM | – | 28.4 nM
